Assay results from patent publication US9309303B2, “Complexation of fatty acid-conjugated molecules with albumin” (The University of the Sciences in Philadelphia, priority 2007, dated 2016).
Ends that are not written are not given here. fluorescein = fluorescein conjugated to the primary amine of the Lys side chain through an MHS ester

Columns and labels:
[1] = molecular target: T1, αvβ3 integrin (Homo sapiens, UniProt P05106+P06756); experiment: αvβ3 integrin-binding assay (co-immunoprecipitation / Ni2+ pull-down, Western blotting); conditions: co-immunoprecipitation and Western blotting
T1 construct: 300 μg MDA-MD-435S (αvβ3 positive) cell extract; endogenous in cells; host or cells: MDA-MB-435S (printed MDA-MD-435S) cell extract
Procedure: Lanes 3 and 6 each contained mixture of 300 μg MDA-MD435S cell extract and 1.2 μg of RGD-rHSA (wild type HSA). For the convenience of purification and detection, all rHSAs were fused with c-terminal c-myc and His6 tags. For lane 1, 2, and 3, the αvβ3 complexes were immunoprecipitated with anti-αv antibody (CHEMICON, AB1930). rHSAs associated with αvβ3 were detected by anti-c-myc antibody. […] For lane 4,5, and 6, the poly-HIS-tagged rHSAs were pulled down with Ni2+-charged chelating agarose. αvβ3 Associated with rHSAs was detected by anti-αv antibody (CHEMICON, AB 1930).

[2] = esterase assay, p-nitrophenyl acetate hydrolysis; type: biochemical; conditions: 5 μM p-nitrophenyl acetate, 40 μg protein, pH 7.4, 37° C., 390 nm
Procedure: The reaction of p-nitrophenyl acetate hydrolysis-mediated by rHSA and RGD-rHSA was assessed spectrophotometrically at 390 nm by monitoring the appearance of p-nitrophenol. The reaction mixtures contained 5 μM p-nitrophenyl acetate and 40 μg protein in 67 mM phosphate buffer (pH 7.4). Reactions were performed at 37° C.

[3] = solubility of rHSA purified from Pichia pastoris expression system; type: physicochemical
From the text: We cloned, expressed and purified this rHSA from a Pichia pastoris yeast rHSA expression system. The protein was soluble and was purified to apparent homogeneity. We confirmed the identity of the purified protein by Western blotting using anti-HSA antibody and anti-c-Myc antibody. The alpha-v-beta-3 integrin binding ability of RGD-HSA was confirmed by co-immunoprecipitation and Western blotting.

[4] = test system: HeLa cells; experiment: cellular uptake and/or binding of Rhodamine-labeled rHSAs, fluorescent microscopy; type: cell-based; conditions: 50 pmol labeled rHSA
Procedure: It has been reported that there is no αvβ3 type of integrin in HeLa cells. Nonetheless, HeLa cells are still able to bind fibronectin. Similar to the cellular uptake experiments for MDA-MB-435S cells, the fluorescent dye labeled rHSAs (50 pmol for rHSA, RGD-rHSA-FN and RGD-rHSA-4C) were added to cultured HeLa cells (with 250 μl EMEM in 24-well plate). Cellular uptake and/or binding was monitored at 1, 4, and 8 hours after washing with fresh non-labeled medium. Cellular uptake and/or binding of albumin was then visualized using fluorescent microscopy.

[5] = molecular target: HSA (Homo sapiens, UniProt P02768); conditions: 25 pmol peptide, 100 pmol defatted HSA, 15 minutes, room temperature
From the text: The reaction mixture was loaded to 0.5×TBE acrylamide gel and separated under 12 mA current.

[6] = test system: HeLa cells; experiment: transfection of HeLa cells with peptides in the presence of HSA; type: cell-based; conditions: 250 pmol peptide, 250 pmol HSA
Procedure: Fatty acid-conjugated faTraF peptides and non-conjugated faTraE peptides (250 pmol) were added to separate batches of HeLa cells (24-well plate with 250 μl of EMEM medium). 250 Pmol of HSA was added to the incubation of some wells, but not others. Cells incubated in the presence of HSA and the fatty-acid conjugated peptides were transfected.

T1 sequence (P06756 31-889 limits assumed): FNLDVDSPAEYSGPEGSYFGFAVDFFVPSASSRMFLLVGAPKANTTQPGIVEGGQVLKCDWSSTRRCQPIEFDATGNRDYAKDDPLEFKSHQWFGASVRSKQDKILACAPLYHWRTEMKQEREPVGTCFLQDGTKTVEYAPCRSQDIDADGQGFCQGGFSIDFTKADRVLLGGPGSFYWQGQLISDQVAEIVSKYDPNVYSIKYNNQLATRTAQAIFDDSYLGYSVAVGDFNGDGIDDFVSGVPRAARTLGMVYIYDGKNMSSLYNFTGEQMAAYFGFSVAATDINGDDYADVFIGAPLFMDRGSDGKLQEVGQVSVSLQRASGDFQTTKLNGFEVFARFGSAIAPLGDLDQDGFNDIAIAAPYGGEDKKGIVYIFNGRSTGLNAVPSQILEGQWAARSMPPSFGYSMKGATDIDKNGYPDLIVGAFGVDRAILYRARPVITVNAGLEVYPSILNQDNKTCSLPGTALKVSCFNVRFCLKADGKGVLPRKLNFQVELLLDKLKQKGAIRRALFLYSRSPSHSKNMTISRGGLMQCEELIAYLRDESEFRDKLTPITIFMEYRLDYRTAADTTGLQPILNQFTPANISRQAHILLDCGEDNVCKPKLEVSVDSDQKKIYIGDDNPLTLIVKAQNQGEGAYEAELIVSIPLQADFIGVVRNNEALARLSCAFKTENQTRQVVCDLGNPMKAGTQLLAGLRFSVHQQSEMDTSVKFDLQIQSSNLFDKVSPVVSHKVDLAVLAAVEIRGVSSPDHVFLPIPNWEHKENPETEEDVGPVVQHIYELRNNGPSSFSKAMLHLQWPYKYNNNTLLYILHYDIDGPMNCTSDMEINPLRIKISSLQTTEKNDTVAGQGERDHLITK
T1 sequence (P06756 891-1048 partner limits assumed): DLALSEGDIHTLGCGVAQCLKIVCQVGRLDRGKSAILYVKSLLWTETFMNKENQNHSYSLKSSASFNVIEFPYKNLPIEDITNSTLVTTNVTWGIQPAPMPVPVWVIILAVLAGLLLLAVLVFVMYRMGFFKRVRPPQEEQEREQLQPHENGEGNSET
T1 sequence (P05106 27-788): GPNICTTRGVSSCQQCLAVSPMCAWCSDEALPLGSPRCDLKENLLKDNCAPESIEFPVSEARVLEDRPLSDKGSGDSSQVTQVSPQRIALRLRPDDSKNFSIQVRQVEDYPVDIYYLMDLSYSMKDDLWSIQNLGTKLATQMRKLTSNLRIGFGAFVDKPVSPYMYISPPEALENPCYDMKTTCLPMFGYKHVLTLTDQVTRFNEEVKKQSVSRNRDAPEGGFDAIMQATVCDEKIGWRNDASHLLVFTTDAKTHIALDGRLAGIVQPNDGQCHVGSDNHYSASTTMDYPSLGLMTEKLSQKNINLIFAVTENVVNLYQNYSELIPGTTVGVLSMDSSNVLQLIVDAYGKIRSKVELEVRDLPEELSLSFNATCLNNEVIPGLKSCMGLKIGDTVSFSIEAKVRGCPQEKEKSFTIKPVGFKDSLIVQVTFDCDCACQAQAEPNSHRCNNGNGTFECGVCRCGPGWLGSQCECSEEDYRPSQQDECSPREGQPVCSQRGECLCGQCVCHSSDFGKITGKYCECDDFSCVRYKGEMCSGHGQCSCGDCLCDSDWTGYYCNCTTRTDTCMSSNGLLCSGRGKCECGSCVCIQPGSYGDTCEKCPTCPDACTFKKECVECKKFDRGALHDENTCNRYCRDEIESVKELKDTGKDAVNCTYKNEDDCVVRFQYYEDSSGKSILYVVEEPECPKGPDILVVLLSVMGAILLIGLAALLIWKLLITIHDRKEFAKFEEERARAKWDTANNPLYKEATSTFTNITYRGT

Row | Substance | αvβ3 integrin binding ability / ability to interact [1] | esterase activity [2] | solubility of purified protein [3] | effect of RGD sequence on albumin uptake and/or binding [4] | complex with HSA on gel [5] | transfection of HeLa cells [6]
1 | RGD-rHSA-FN: rHSA containing fibronectin RGD sequence (CGRGDSPC) in place of residues 53-62 of HSA | confirmed | comparable | soluble | mildly stimulated |  | 
2 | fatty acid-conjugated faTraF peptide: fluorescein-labeled peptide CHLDAHWKG conjugated at Cys thiol with 16-methanethiosulfonyl hexadecanoic acid: HOOC—(CH2)15—S—S-peptide (not fully specified (residue 1); also: fluorescein-labeled (position not given here)) |  |  |  |  | clearly observed | transfected
3 | unmodified peptides: peptide CHLDAHWKG (SEQ ID NO: 58) conjugated with fluorescein at Lys, without fatty acid (CHLDAHWK(fluorescein)G) [reference compound] |  |  |  |  |  | can not be observed
